This note sets out measurements from patent US20230227508A1 (MIT, published 2023).

The target in test [1] is T1, σN-NpuN-Mdm2* bait fusion (residues 17-124 of Mdm2) (UniProt Q00987 17-124). As to the kind of experiment: cell-based or functional assay.
For test [2], the target named is T1, σN-NpuN-Mdm2* bait fusion (residues …). The experiment in a line: split intein σ factor circuit in E. coli, sfGFP read by flow cytometry. For orientation: A flow cytometer gives signals particle by particle.

T1 sequence (Q00987 other isoform, or with tags, fused parts or gaps limits assumed): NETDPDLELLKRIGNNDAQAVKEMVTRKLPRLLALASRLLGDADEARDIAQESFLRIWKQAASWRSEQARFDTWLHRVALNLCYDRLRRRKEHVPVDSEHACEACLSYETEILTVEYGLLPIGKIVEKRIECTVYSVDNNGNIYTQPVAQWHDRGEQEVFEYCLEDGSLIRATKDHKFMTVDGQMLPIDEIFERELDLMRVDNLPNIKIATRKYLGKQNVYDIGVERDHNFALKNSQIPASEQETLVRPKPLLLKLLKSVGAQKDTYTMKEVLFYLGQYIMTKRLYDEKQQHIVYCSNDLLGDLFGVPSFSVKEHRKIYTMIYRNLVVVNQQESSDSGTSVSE

B1: ACE2*-NpuC-σC peptide fusion (N-terminal residues 19-56 of ACE2) (other, not shown: small tags and cut ends)
chain: STIEEQAKTFLDKFNHEAEDLFYQSSLASWNYNTNITERGGKGGPGGRGGVGGGGGIGGGFIASNCWLDTRPAPDEQLEASAQSRRMAQALDQLPDRQREAIVLQYYQELSNTEAAALMQISVEALESLLSRARRNLRSHLAEAPGADLSGRRKP
notes: also called ACE2a1; pAMK-857
On to B1, for which the “drop of the fluorescent output of the circuit relative to the PMI/Mdm2* pair” value in test [1] worked out at 15 fold. In test [2], the binding result is “no binding”.
